Assay results from publication PMC10641528, “A conserved, noncanonical insert in FIS1 mediates TBC1D15 and DRP1 recruitment for mitochondrial fission” (The Journal of Biological Chemistry, 2023).

Target: DRP1, endogenous (dynamin family GTPase) (human (endogenous in HCT116)) (UniProt O00429)
Test: co-IP; endogenous DRP1 immunoprecipitated (mouse monoclonal sc-271583 on protein A/G beads) from lysates of HCT116 cells transfected with pcDNA or pcDNA-FIS1 variants and cross-linked with 0.25% PFA; FIS1 blotted; scored as ratio of immunoprecipitated to input FIS1; lysis buffer 10 mM Tris/Cl pH 7.5, 150 mM NaCl, 0.5 mM EDTA, 0.5% NP-40 substitute
Conditions: not given

DRP1, endogenous (dynamin family GTPase) (human (endogenous in HCT116)), sequence (O00429 whole entry): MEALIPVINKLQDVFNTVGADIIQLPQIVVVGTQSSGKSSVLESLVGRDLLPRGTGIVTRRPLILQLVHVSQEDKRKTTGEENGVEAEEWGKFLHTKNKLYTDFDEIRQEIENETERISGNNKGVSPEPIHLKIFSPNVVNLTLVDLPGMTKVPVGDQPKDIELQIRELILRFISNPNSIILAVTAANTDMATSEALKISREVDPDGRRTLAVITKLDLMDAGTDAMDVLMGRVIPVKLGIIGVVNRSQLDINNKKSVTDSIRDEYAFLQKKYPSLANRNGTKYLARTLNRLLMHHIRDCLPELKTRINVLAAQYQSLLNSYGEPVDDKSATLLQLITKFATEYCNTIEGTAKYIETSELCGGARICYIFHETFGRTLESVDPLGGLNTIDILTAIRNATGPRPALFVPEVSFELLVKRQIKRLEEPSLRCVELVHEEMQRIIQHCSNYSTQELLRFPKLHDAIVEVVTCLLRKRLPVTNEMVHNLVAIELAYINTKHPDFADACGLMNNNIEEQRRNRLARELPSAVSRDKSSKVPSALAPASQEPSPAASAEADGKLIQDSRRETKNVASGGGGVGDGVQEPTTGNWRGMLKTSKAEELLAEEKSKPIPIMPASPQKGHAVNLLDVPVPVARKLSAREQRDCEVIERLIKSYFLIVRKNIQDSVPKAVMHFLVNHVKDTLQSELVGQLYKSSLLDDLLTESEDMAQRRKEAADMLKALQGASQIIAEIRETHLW

Molecule	ratio of immunoprecipitated to input FIS1
FIS1 5LA variant (five conserved TPR Leu residues replaced with Ala) (from UniProt Q9Y3D6 1-145) (natural protein)	3.9

Target: T1, DRP1, endogenous (dynamin family GTPase) (human (endogenous in HCT116), UniProt O00429 1-736)
T1 construct: DRP1 endogenous in HCT116 cells; Immunoprecipitated with mouse monoclonal DRP1 antibody sc-271583; source: endogenous, HCT116 lysate (PFA cross-linked cells)
Test: as above
Conditions: partners not purified

T1 sequence (O00429 whole entry): as above

Molecule	ratio of immunoprecipitated to input FIS1
Mitochondrial fission protein 1 (FIS1), wildtype, ectopically expressed from pcDNA-FIS1 WT (natural protein, human, human mitochondrial fission protein 1 (FIS1), wildtype, expressed from pcDNA; No tag is mentioned; detected with an anti-FIS1 antibody; also called WT FIS1; source: HCT116, transfected, in lysate (PFA cross-linked cells)) MEAVLNELVSVEDLLKFEKKFQSEKAAGSVSKSTQFEYAWCLVRSKYNDDIRKGIVLLEELLPKGSKEEQRDYVFYLAVGNYRLKEYEKALKYVRGLLQTEPQNNQAKELERLIDKAMKKDGLVGMAIVGGMALGVAGLAGLIGL	0.7 ± 0.1
FIS1 AAA variant (SKY insert substituted with three alanines) (natural protein, human, human FIS1 with S45, K46, Y47 replaced by three Ala, expressed from pcDNA; also called AAA FIS1 variant; source: HCT116, transfected, in lysate (PFA cross-linked cells)) MEAVLNELVSVEDLLKFEKKFQSEKAAGSVSKSTQFEYAWCLVRAAANDDIRKGIVLLEELLPKGSKEEQRDYVFYLAVGNYRLKEYEKALKYVRGLLQTEPQNNQAKELERLIDKAMKKDGLVGMAIVGGMALGVAGLAGLIGL	0.9 ± 0.1
FIS1 D49G variant (natural protein, human, human FIS1 that keeps the SKY insert, with D49 replaced by Gly, expressed from pcDNA; source: HCT116, transfected, in lysate (PFA cross-linked cells)) MEAVLNELVSVEDLLKFEKKFQSEKAAGSVSKSTQFEYAWCLVRSKYNGDIRKGIVLLEELLPKGSKEEQRDYVFYLAVGNYRLKEYEKALKYVRGLLQTEPQNNQAKELERLIDKAMKKDGLVGMAIVGGMALGVAGLAGLIGL	0.7 ± 0.3
FIS1 ΔSKY variant (SKY insert deleted) (natural protein, human, human FIS1 with S45, K46, Y47 deleted, expressed from pcDNA; source: HCT116, transfected, in lysate (PFA cross-linked cells)) MEAVLNELVSVEDLLKFEKKFQSEKAAGSVSKSTQFEYAWCLVRNDDIRKGIVLLEELLPKGSKEEQRDYVFYLAVGNYRLKEYEKALKYVRGLLQTEPQNNQAKELERLIDKAMKKDGLVGMAIVGGMALGVAGLAGLIGL	1.3 ± 0.9
FIS1 ΔSKYD49G variant (SKY insert deleted, D49 replaced by Gly) (natural protein, human, human FIS1 with S45, K46, Y47 deleted and D49 replaced by Gly (wildtype numbering), expressed from pcDNA; source: HCT116, transfected, in lysate (PFA cross-linked cells)) MEAVLNELVSVEDLLKFEKKFQSEKAAGSVSKSTQFEYAWCLVRNGDIRKGIVLLEELLPKGSKEEQRDYVFYLAVGNYRLKEYEKALKYVRGLLQTEPQNNQAKELERLIDKAMKKDGLVGMAIVGGMALGVAGLAGLIGL	0.9 ± 0.2
